Reference: patent publication US5763593

Target: TATA-binding protein (Saccharomyces cerevisiae (strain ATCC 204508 / S288c) (Baker's yeast)) (UniProt P13393)

- amount required for 50% inhibition of in vitro transcription by RNA polymerase II holoenzyme: 0.5 pmol
Substance: purified yeast NC2 (DRAP1/Dr1) with epitope-tagged (FLAG) NC2α/DRAP1 subunit
